Earlier results in paper PMC6916721.

What was measured:
His95 = His95 (UniProt position 121, YHCTPHPFMRG); details: reduced (Cu+) amicyanin, free (not in complex with MADH)
[1] = biological target: Amicyanin, reduced (Cu+) form (UniProt P22364); details: pH
Amicyanin, reduced (Cu+) form, sequence (P22364 whole entry): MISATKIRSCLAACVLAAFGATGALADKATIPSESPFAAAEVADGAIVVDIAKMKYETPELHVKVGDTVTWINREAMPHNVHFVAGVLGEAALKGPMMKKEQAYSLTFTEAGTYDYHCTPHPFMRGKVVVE

Substance	pKa (His95)	pKa, His95 of amicyanin (copper ligand, reduced Cu+ state) [1] [pH units]
Amicyanin (Paracoccus denitrificans)	7.7	
Methylamine dehydrogenase (MADH)		7.7
